Laboratory results reported in US20230074436A1 (DENALI THERAPEUTICS, published 2023).

molecular target: human alpha-synuclein monomer (human, UniProt P37840 1-140); test: SPR (Biacore 8K), IgG captured on anti-human Fc, aSyn monomer injected;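 note: aSyn injected as a dilution series, signal corrected against a reference cell holding an irrelevant IgG, Kd from one-to-one Langmuir kinetic fitting of kon and koff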
Method: Serial 3-fold dilutions of aSyn were injected at a flow rate of 30 μL/min. Each sample was analyzed using a 3-minute association and a 10-minute dissociation. After each injection, the chip was regenerated using 3 M MgCl₂. Binding response was corrected by subtracting the RU from a flow cell capturing an irrelevant IgG at similar density. A 1:1 Languir model of simultaneous fitting of kₒₙ and koff was used for kinetics analysis.

Binder	Kd
H1_1_LC2 (antibody, V domains shown) VH: EVQLVESGGGLVQPGGSLRLSCAASGFTFSKAAMYWVRQAPGKGLELVSRIRTKPNNYATYHADSVKGRFTISRDNSKNTLYLQMNSLRAEDTAVYYCTADMATGDYWGQGTLVTVSS VL: DIQMTQSPSSLSASVGDRVTITCKASQNINKNLDWYQQKPGKAPKPLIYSTNNLQTGVPSRFSGSGSGTDFTLTISSLQPEDFATYYCYQYKSAWTFGQGTKVEIK	3.46 nM
H1_2_LC2 (antibody, V domains shown) VH: EVQLVESGGGLVQPGGSLRLSCAASGFRFSKAAMYWVRQAPGKGLELVSRIRTKPNNYATYHADSVKGRFTISRDNSKNTLYLQMNSLRAEDTAVYYCTADMATGDYWGQGTLVTVSS VL: DIQMTQSPSSLSASVGDRVTITCKASQNINKNLDWYQQKPGKAPKPLIYSTNNLQTGVPSRFSGSGSGTDFTLTISSLQPEDFATYYCYQYKSAWTFGQGTKVEIK	3.53 nM
H1_3_LC2 (antibody, V domains shown) VH: EVQLVESGGGLVQPGGSLRLSCAASGFTFSRAAMYWVRQAPGKGLELVSRIRTKPNNYATYHADSVKGRFTISRDNSKNTLYLQMNSLRAEDTAVYYCTADMATGDYWGQGTLVTVSS VL: DIQMTQSPSSLSASVGDRVTITCKASQNINKNLDWYQQKPGKAPKPLIYSTNNLQTGVPSRFSGSGSGTDFTLTISSLQPEDFATYYCYQYKSAWTFGQGTKVEIK	4.04 nM
H1_4_LC2 (antibody, V domains shown) VH: EVQLVESGGGLVQPGGSLRLSCAASGFTFNKAAMYWVRQAPGKGLELVSRIRTKPNNYATYHADSVKGRFTISRDNSKNTLYLQMNSLRAEDTAVYYCTADMATGDYWGQGTLVTVSS VL: DIQMTQSPSSLSASVGDRVTITCKASQNINKNLDWYQQKPGKAPKPLIYSTNNLQTGVPSRFSGSGSGTDFTLTISSLQPEDFATYYCYQYKSAWTFGQGTKVEIK	3.55 nM
H1_5_LC2 (antibody, V domains shown) VH: EVQLVESGGGLVQPGGSLRLSCAASGFKFSKAAMYWVRQAPGKGLELVSRIRTKPNNYATYHADSVKGRFTISRDNSKNTLYLQMNSLRAEDTAVYYCTADMATGDYWGQGTLVTVSS VL: DIQMTQSPSSLSASVGDRVTITCKASQNINKNLDWYQQKPGKAPKPLIYSTNNLQTGVPSRFSGSGSGTDFTLTISSLQPEDFATYYCYQYKSAWTFGQGTKVEIK	4.61 nM
H1_6_LC2 (antibody, V domains shown) VH: EVQLVESGGGLVQPGGSLRLSCAASGFNFSKAAMYWVRQAPGKGLELVSRIRTKPNNYATYHADSVKGRFTISRDNSKNTLYLQMNSLRAEDTAVYYCTADMATGDYWGQGTLVTVSS VL: DIQMTQSPSSLSASVGDRVTITCKASQNINKNLDWYQQKPGKAPKPLIYSTNNLQTGVPSRFSGSGSGTDFTLTISSLQPEDFATYYCYQYKSAWTFGQGTKVEIK	3.91 nM
H2_1_LC2 (antibody, V domains shown) VH: EVQLVESGGGLVQPGGSLRLSCAASGFTFSNAAMYWVRQAPGKGLELVSRIRTKPNNFATYHADSVKGRFTISRDNSKNTLYLQMNSLRAEDTAVYYCTADMATGDYWGQGTLVTVSS VL: DIQMTQSPSSLSASVGDRVTITCKASQNINKNLDWYQQKPGKAPKPLIYSTNNLQTGVPSRFSGSGSGTDFTLTISSLQPEDFATYYCYQYKSAWTFGQGTKVEIK	6.18 nM
H2_2_LC2 (antibody, V domains shown) VH: EVQLVESGGGLVQPGGSLRLSCAASGFTFSNAAMYWVRQAPGKGLELVSRIRTQRNNYATYHADSVKGRFTISRDNSKNTLYLQMNSLRAEDTAVYYCTADMATGDYWGQGTLVTVSS VL: DIQMTQSPSSLSASVGDRVTITCKASQNINKNLDWYQQKPGKAPKPLIYSTNNLQTGVPSRFSGSGSGTDFTLTISSLQPEDFATYYCYQYKSAWTFGQGTKVEIK	5.93 nM
H2_3_LC2 (antibody, V domains shown) VH: EVQLVESGGGLVQPGGSLRLSCAASGFTFSNAAMYWVRQAPGKGLELVSRIRTERNNYATYHADSVKGRFTISRDNSKNTLYLQMNSLRAEDTAVYYCTADMATGDYWGQGTLVTVSS VL: DIQMTQSPSSLSASVGDRVTITCKASQNINKNLDWYQQKPGKAPKPLIYSTNNLQTGVPSRFSGSGSGTDFTLTISSLQPEDFATYYCYQYKSAWTFGQGTKVEIK	4.76 nM
H2_4_LC2 (antibody, V domains shown) VH: EVQLVESGGGLVQPGGSLRLSCAASGFTFSNAAMYWVRQAPGKGLELVSRIRTKRNNYATYHADSVKGRFTISRDNSKNTLYLQMNSLRAEDTAVYYCTADMATGDYWGQGTLVTVSS VL: DIQMTQSPSSLSASVGDRVTITCKASQNINKNLDWYQQKPGKAPKPLIYSTNNLQTGVPSRFSGSGSGTDFTLTISSLQPEDFATYYCYQYKSAWTFGQGTKVEIK	8.35 nM
H2_5_LC2 (antibody, V domains shown) VH: EVQLVESGGGLVQPGGSLRLSCAASGFTFSNAAMYWVRQAPGKGLELVSRIRTEPNNYATYHADSVKGRFTISRDNSKNTLYLQMNSLRAEDTAVYYCTADMATGDYWGQGTLVTVSS VL: DIQMTQSPSSLSASVGDRVTITCKASQNINKNLDWYQQKPGKAPKPLIYSTNNLQTGVPSRFSGSGSGTDFTLTISSLQPEDFATYYCYQYKSAWTFGQGTKVEIK	5.5 nM
H2_6_LC2 (antibody, V domains shown) VH: EVQLVESGGGLVQPGGSLRLSCAASGFTFSNAAMYWVRQAPGKGLELVSRIRTKPKNYATYHADSVKGRFTISRDNSKNTLYLQMNSLRAEDTAVYYCTADMATGDYWGQGTLVTVSS VL: DIQMTQSPSSLSASVGDRVTITCKASQNINKNLDWYQQKPGKAPKPLIYSTNNLQTGVPSRFSGSGSGTDFTLTISSLQPEDFATYYCYQYKSAWTFGQGTKVEIK	7.75 nM
H3_1_LC2 (antibody, V domains shown) VH: EVQLVESGGGLVQPGGSLRLSCAASGFTFSNAAMYWVRQAPGKGLELVSRIRTKPNNYATYHADSVKGRFTISRDNSKNTLYLQMNSLRAEDTAVYYCTANMATGDYWGQGTLVTVSS VL: DIQMTQSPSSLSASVGDRVTITCKASQNINKNLDWYQQKPGKAPKPLIYSTNNLQTGVPSRFSGSGSGTDFTLTISSLQPEDFATYYCYQYKSAWTFGQGTKVEIK	4.79 nM
H3_2_LC2 (antibody, V domains shown) VH: EVQLVESGGGLVQPGGSLRLSCAASGFTFSNAAMYWVRQAPGKGLELVSRIRTKPNNYATYHADSVKGRFTISRDNSKNTLYLQMNSLRAEDTAVYYCTANMAKGDYWGQGTLVTVSS VL: DIQMTQSPSSLSASVGDRVTITCKASQNINKNLDWYQQKPGKAPKPLIYSTNNLQTGVPSRFSGSGSGTDFTLTISSLQPEDFATYYCYQYKSAWTFGQGTKVEIK	4.92 nM
H3_3_LC2 (antibody, V domains shown) VH: EVQLVESGGGLVQPGGSLRLSCAASGFTFSNAAMYWVRQAPGKGLELVSRIRTKPNNYATYHADSVKGRFTISRDNSKNTLYLQMNSLRAEDTAVYYCAAAMARGDYWGQGTLVTVSS VL: DIQMTQSPSSLSASVGDRVTITCKASQNINKNLDWYQQKPGKAPKPLIYSTNNLQTGVPSRFSGSGSGTDFTLTISSLQPEDFATYYCYQYKSAWTFGQGTKVEIK	5.3 nM
H3_4_LC2 (antibody, V domains shown) VH: EVQLVESGGGLVQPGGSLRLSCAASGFTFSNAAMYWVRQAPGKGLELVSRIRTKPNNYATYHADSVKGRFTISRDNSKNTLYLQMNSLRAEDTAVYYCSADFAKGDYWGQGTLVTVSS VL: DIQMTQSPSSLSASVGDRVTITCKASQNINKNLDWYQQKPGKAPKPLIYSTNNLQTGVPSRFSGSGSGTDFTLTISSLQPEDFATYYCYQYKSAWTFGQGTKVEIK	4.64 nM
H3_5_LC2 (antibody, V domains shown) VH: EVQLVESGGGLVQPGGSLRLSCAASGFTFSNAAMYWVRQAPGKGLELVSRIRTKPNNYATYHADSVKGRFTISRDNSKNTLYLQMNSLRAEDTAVYYCTADFARGDYWGQGTLVTVSS VL: DIQMTQSPSSLSASVGDRVTITCKASQNINKNLDWYQQKPGKAPKPLIYSTNNLQTGVPSRFSGSGSGTDFTLTISSLQPEDFATYYCYQYKSAWTFGQGTKVEIK	3.84 nM
H3_6_LC2 (antibody, V domains shown) VH: EVQLVESGGGLVQPGGSLRLSCAASGFTFSNAAMYWVRQAPGKGLELVSRIRTKPNNYATYHADSVKGRFTISRDNSKNTLYLQMNSLRAEDTAVYYCTANMRKGDYWGQGTLVTVSS VL: DIQMTQSPSSLSASVGDRVTITCKASQNINKNLDWYQQKPGKAPKPLIYSTNNLQTGVPSRFSGSGSGTDFTLTISSLQPEDFATYYCYQYKSAWTFGQGTKVEIK	10.3 nM
HC2_L1_1 (antibody, V domains shown) VH: EVQLVESGGGLVQPGGSLRLSCAASGFTFSNAAMYWVRQAPGKGLELVSRIRTKPNNYATYHADSVKGRFTISRDNSKNTLYLQMNSLRAEDTAVYYCTADMATGDYWGQGTLVTVSS VL: DIQMTQSPSSLSASVGDRVTITCKASQNINNNLDWYQQKPGKAPKPLIYSTNNLKTGVPSRFSGSGSGTDFTLTISSLQPEDFATYYCYQYKSAWTFGQGTKVEIK	1.2 nM
HC2_L1_2 (antibody, V domains shown) VH: EVQLVESGGGLVQPGGSLRLSCAASGFTFSNAAMYWVRQAPGKGLELVSRIRTKPNNYATYHADSVKGRFTISRDNSKNTLYLQMNSLRAEDTAVYYCTADMATGDYWGQGTLVTVSS VL: DIQMTQSPSSLSASVGDRVTITCKASQIINQILDWYQQKPGKAPKPLIYSTNNLQTGVPSRFSGSGSGTDFTLTISSLQPEDFATYYCYQYKSAWTFGQGTKVEIK	2.45 nM
HC2_L2_1 (antibody, V domains shown) VH: EVQLVESGGGLVQPGGSLRLSCAASGFTFSNAAMYWVRQAPGKGLELVSRIRTKPNNYATYHADSVKGRFTISRDNSKNTLYLQMNSLRAEDTAVYYCTADMATGDYWGQGTLVTVSS VL: DIQMTQSPSSLSASVGDRVTITCKASQNINKNLDWYQQKPGKAPKPLIYSTNKLKTGVPSRFSGSGSGTDFTLTISSLQPEDFATYYCYQYKSAWTFGQGTKVEIK	1.78 nM
HC2_L2_2 (antibody, V domains shown) VH: EVQLVESGGGLVQPGGSLRLSCAASGFTFSNAAMYWVRQAPGKGLELVSRIRTKPNNYATYHADSVKGRFTISRDNSKNTLYLQMNSLRAEDTAVYYCTADMATGDYWGQGTLVTVSS VL: DIQMTQSPSSLKSSVGDRVTITCKASQNINKNLDWYQQKPGKAPKPLIYRTKNLQTGVPSRFSGSGSGTDFTLTISSLQPEDFATYYCYQYKSAWTFGQGTKVEIK	2.01 nM
